Reference: patent US20110206702A1 (Genentech, published 2011)

Target: T1, TAT419 polypeptide (human, UniProt P24530 27-442)
T1 construct: Full-length TAT419 on transfected cells (e.g. 293 cells) or on TAT419-expressing human melanoma cell lines; also called full-length TAT419 polypeptide; cell surface expressed TAT419 polypeptide
T1 sequence: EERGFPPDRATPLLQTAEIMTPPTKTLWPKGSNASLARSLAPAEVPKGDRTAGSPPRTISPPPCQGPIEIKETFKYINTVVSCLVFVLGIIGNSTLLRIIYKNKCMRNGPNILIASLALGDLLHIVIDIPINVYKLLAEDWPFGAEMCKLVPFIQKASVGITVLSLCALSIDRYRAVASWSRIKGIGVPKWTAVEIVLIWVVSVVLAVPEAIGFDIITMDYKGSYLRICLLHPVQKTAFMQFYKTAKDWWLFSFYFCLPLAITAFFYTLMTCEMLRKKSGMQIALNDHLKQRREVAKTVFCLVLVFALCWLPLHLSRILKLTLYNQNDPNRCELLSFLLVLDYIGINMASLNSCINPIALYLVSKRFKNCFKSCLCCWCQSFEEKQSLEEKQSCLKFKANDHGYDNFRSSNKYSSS
Assay: Western blots, TAT419-derived peptide variants expressed in 293 cells
Method: Binding analysis was also conducted to identify the approximate location of the epitopes. Several TAT419-derived peptide variants were expressed in 293 cells. Western blots were carried out using various of the murine anti-TAT419 monoclonal antibodies described herein.

B1: murine anti-TAT419 monoclonal antibody 5E9 (antibody, mouse IgG2a, kappa, V domains shown)
VH: QVQLLQSGAELARPGASVKLSCKASGYTFTSYWMQWVKQRPGQGLEWIGTIYPGDGDTSYAQKFKGKATLTTDKYSSTAYMQLSSLASEDSAVYYCARWGYAYDIDNWGQGTTVTVSS
VL: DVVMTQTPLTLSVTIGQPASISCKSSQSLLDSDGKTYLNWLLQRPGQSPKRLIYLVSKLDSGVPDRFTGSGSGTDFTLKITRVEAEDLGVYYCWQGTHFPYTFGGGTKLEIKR
notes: also called murine 5E9
binding result: binds

B2: humanized anti-TAT419 antibody hu5E9.v1 (antibody, human IgG1, kappa, V domains shown)
VH: EVQLVESGGGLVQPGGSLRLSCAASGYTFTSYWMQWVRQAPGKGLEWIGTIYPGDGDTSYAQKFKGRATLSTDKSKNTAYLQMNSLRAEDTAVYYCARWGYAYDIDNWGQGTLVTVSS
VL: DIQMTQSPSSLSASVGDRVTITCKSSQSLLDSDGKTYLNWLQQKPGKAPKRLIYLVSKLDSGVPSRFSGSGSGTDFTLTISSLQPEDFATYYCWQGTHFPYTFGQGTKVEIKR
binding result: binds
